Target: prostate-specific antigen (PSA), enzymatically active, from human seminal fluid (human, UniProt P07288 25-261)
Assay: chemiluminescence sandwich assay on Si NW surface

prostate-specific antigen (PSA), enzymatically active, from human seminal fluid, sequence (P07288 25-261): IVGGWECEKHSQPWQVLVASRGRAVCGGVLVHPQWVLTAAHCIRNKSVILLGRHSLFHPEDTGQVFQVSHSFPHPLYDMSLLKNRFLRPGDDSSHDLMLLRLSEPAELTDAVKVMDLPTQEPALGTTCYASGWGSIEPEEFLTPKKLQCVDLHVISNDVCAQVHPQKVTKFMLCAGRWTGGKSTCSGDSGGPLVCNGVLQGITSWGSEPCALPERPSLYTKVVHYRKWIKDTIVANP

AAAAATTAATTTCGAGCGGTAGTTTATCGAAA (ssDNA, 5'-H3N-(CH2)6) [nonspecific aptamer (32 nt control)]
binding result: no binding

Reference: paper PMC6644640
